Data: patent publication US20240254239A1 (LAEKNA THERAPEUTICS SHANGHAI, published 2024)
Substitutions are numbered along the chain they refer to. Names and notes keep the numbering of the source. One block for each binder: values may come before it.

Legend:
[1] = target: T1, human PD-L1 ECD (human, UniProt Q9NZQ7 19-238); assay: direct ELISA on coated recombinant ECD (30 ng/well), HRP-conjugated secondary antibody, luminescence
T1 construct: extracellular domain; also called recombinant extracellular domain of PD-L1
T1 sequence (Q9NZQ7 19-238): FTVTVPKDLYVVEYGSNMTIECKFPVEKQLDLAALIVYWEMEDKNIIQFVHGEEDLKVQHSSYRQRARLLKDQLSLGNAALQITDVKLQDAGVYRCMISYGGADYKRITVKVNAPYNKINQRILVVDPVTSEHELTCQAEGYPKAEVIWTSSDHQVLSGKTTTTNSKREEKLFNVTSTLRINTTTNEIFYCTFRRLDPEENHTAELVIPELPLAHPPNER
Protocol: (§1) Briefly, recombinant extracellular domain of PDGFRb, FAPα, ULBP1, uPAR, IGF1R, SIRPA, PD-L1, ANTXR1, CD248, or GPC3 (30 ng/well) was coated on white optiplate™-384 well HB plate. After overnight coating, standard direct ELISA assay was performed. Luminescence signal was detected after using secondary antibody with HRP conjugated. Binding activity of each antibody was determined based on dose dependent binding curve.

[2] = target: T2, human SIRPA ECD (human, UniProt P78324 31-373); assay: as above
T2 construct: extracellular domain; also called recombinant extracellular domain of SIRPA
T2 sequence (P78324 31-373): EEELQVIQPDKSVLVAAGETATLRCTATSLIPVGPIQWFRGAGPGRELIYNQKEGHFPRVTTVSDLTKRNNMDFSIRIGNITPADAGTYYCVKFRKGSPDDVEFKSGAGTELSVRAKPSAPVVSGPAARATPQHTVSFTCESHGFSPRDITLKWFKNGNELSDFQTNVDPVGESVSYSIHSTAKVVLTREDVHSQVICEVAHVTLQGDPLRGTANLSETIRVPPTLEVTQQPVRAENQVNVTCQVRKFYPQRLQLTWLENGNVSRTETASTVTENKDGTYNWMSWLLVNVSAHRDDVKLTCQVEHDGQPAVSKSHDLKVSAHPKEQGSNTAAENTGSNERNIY
Protocol: as §1

[3] = target: T3, human ANTXR1 ECD (human, UniProt Q9H6X2 33-321); assay: as above
T3 construct: extracellular domain; also called recombinant extracellular domain of ANTXR1
T3 sequence (looked up): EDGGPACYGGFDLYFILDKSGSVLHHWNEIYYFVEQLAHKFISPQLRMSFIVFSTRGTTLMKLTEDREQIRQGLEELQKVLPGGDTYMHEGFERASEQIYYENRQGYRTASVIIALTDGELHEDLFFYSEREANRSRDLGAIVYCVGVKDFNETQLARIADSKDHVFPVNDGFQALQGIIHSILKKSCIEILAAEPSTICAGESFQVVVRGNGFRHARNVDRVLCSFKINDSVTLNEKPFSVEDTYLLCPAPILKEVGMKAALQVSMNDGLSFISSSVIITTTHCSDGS
Protocol: as §1

[4] = target: T4, human CD248 ECD (human, UniProt Q9HCU0 18-687); assay: as above
T4 construct: extracellular domain; also called recombinant extracellular domain of CD248
T4 sequence (looked up): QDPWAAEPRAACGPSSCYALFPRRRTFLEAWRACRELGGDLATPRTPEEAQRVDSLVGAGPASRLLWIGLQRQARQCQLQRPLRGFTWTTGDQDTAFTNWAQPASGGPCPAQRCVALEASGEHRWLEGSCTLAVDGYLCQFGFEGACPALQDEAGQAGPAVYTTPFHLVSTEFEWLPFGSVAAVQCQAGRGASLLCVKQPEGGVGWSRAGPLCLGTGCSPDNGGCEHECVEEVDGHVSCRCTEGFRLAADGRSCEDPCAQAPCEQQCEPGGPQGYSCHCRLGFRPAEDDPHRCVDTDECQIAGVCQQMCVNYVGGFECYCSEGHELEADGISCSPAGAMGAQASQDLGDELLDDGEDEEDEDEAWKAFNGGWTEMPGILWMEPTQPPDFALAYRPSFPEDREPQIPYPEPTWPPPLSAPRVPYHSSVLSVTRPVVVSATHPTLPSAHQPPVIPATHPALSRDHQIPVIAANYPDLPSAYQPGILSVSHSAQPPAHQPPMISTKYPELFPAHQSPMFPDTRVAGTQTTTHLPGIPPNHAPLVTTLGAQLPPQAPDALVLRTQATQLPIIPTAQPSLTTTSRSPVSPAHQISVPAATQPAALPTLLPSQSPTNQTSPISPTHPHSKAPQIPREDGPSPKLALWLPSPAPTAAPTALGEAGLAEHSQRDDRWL
Protocol: as §1

[5] = target: T5, human uPAR ECD (human, UniProt Q03405 23-305, limits assumed); assay: as above
T5 construct: extracellular domain; also called recombinant extracellular domain of uPAR
T5 sequence (Q03405 23-305 limits assumed): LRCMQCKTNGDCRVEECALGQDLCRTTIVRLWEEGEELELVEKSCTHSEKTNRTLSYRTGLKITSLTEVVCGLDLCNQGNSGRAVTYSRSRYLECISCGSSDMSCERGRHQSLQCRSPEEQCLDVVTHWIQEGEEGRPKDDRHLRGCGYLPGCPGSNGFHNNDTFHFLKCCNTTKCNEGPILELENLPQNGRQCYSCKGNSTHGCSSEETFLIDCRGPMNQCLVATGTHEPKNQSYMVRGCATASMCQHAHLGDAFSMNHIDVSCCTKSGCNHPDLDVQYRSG
Protocol: as §1

[6] = target: T6, IGF-1R on TGFb1-activated primary human HSC cells (human, UniProt P08069 31-1367); assay: flow cytometry on TGFb1-activated primary human HSC cells, 10 ug/ml antibody, fluorophore-conjugated secondary antibody
T6 construct: whole, on cells
T6 sequence (P08069 31-1367): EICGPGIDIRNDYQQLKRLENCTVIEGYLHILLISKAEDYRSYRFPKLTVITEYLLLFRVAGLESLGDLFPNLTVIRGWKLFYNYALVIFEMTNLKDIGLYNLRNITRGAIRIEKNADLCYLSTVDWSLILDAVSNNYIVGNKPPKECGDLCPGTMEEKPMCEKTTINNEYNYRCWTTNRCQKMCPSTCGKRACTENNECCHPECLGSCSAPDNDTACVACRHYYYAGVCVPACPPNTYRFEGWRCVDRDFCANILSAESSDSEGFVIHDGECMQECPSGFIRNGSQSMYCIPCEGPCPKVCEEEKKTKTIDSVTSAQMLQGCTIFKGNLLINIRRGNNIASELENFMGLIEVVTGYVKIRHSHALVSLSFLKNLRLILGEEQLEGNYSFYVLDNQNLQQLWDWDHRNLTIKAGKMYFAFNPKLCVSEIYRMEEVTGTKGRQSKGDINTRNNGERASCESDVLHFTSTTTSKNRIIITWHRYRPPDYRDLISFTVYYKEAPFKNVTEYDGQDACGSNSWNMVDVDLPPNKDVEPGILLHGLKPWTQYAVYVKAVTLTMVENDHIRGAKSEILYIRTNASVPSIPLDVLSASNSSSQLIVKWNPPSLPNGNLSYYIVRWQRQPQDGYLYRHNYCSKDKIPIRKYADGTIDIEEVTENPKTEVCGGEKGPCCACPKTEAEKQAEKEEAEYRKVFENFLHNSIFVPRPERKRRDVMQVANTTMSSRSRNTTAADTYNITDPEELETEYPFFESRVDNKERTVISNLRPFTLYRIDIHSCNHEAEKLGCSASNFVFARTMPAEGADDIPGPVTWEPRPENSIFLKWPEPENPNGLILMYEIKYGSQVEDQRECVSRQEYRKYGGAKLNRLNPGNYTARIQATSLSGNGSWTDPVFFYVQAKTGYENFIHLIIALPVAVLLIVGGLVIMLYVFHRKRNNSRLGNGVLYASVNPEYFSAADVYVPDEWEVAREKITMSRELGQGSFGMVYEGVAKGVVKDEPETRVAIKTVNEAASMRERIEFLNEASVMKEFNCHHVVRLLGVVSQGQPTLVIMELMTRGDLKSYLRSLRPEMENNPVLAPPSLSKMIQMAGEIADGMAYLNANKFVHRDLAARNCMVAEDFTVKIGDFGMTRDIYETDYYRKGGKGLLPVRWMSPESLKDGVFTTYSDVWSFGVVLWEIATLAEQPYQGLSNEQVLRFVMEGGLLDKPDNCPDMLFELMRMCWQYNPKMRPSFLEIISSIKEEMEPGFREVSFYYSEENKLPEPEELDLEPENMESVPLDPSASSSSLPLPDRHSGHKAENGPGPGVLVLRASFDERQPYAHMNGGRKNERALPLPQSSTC
Protocol: Relative expression levels of the antigens on activated HSC were assayed using FACS. Human primary hepatic stellate cells (ScienCell, 5301) were cultured in culture medium (ScienCell, 5300). The cells were activated using 2 ng/ml human TGFb1 (Sinobiological, 10804-HNAC) for 24 hours. These cells were then collected for FACS assay. Briefly, the cells were incubated with 10 μg/ml primary antibody in blocking buffer (10% FBS in PBS) at 4 °C for 1 hour. After two rounds of PBS washes, the cells were stained with secondary antibody conjugated with a fluorophore. The mean fluorescence intensity was measured using FACS. Among the antigens tested, fibroblast activation protein alpha (FAPα) was expressed at relatively high levels, while uPAR, IGF-1R, GPC3, CD248 and NKG2D ligands were expressed at relatively low levels on TGFb1-activated HSC cells.

[7] = target: T7, human FAPa ECD (human, UniProt Q12884 26-760); assay: direct ELISA on coated recombinant ECD (30 ng/well), HRP-conjugated secondary antibody, luminescence
T7 construct: extracellular domain; also called recombinant extracellular domain of FAPα
T7 sequence (looked up): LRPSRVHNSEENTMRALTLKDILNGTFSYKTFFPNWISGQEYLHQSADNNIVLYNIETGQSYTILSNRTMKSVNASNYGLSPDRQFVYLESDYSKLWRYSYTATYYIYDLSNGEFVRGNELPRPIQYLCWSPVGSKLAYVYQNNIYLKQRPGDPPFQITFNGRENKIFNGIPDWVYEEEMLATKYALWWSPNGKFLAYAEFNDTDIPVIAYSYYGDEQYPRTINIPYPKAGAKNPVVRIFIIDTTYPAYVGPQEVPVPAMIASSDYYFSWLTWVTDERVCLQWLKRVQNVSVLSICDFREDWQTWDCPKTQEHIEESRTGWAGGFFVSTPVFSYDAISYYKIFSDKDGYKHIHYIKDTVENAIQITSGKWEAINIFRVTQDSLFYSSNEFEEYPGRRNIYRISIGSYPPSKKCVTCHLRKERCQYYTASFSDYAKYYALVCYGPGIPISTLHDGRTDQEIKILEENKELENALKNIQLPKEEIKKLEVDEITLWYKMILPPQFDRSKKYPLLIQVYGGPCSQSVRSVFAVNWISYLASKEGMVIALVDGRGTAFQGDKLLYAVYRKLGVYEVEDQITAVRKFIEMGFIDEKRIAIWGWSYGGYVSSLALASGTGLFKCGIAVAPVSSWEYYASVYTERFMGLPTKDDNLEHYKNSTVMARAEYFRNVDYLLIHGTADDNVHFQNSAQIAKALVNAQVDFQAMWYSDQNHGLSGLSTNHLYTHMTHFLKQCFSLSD
Protocol: as §1

B2: α-SIRPA 1 S239D/1332E (antibody, human IgG1, kappa, V domains shown)
VH: EVQLQQSGAELVKPGASVKLSCTTSGFNFKDMYIHWVKQRPQQGLEWIGRIDPENDDTKYDPKFQDKATITADTSSNTAYLQLSNLPSEDTAVYYCARGNYVHWGQGTLVTVSA
VL: DIVLTQSPASLAVSLGQRATISCRASESVQYYGTSLMQWYQQKPGQPPKLLIYAASNVESGVPARFSGSGSGTDFSLNIYPVEEDDIAMYFCQQSRRVWTFGGGTKLEIKR
notes: Chimeric: murine variable regions, hIgG1 constant region with S239D/I332E; also called α-SIRPA 1 S239D/I332E; exemplary anti-SIRPA antibody (α-SIRPA 1)
EC50 (read off the curve) [2]: ~0.3 nM

B3: α-SIRPA 2 S239D/1332E (antibody, human IgG1, kappa, V domains shown)
VH: B2 VH with L20V, T24G, I34L, Q42E, D57S, I70L, S75A, L83I, N85S, P87T
VL: B2 VL with E59G, Y80H, S95T
notes: Chimeric: murine variable regions, hIgG1 constant region with S239D/I332E; also called α-SIRPA 2 S239D/I332E; exemplary anti-SIRPA antibody (α-SIRPA 2)
EC50 (read off the curve) [2]: ~0.3 nM

B5: α-SIRPA 3 S239D/1332E (antibody, human IgG1, kappa, V domains shown)
VH: EVQLQQSGAELVKPGASVKLSCTASGFNIKDSYMHWVKQRTEQGLEWIGRIDPEDGETKYAPKFQGKATITADTSSNTAYLQLTSLTSEDTAVYYCARRGFYWGQGTTLTVSS
VL: QIVLTQSPAIMSASPGEKVTLTCSASSSVSSSYLYWYQQKPGSSPKLWIYSTSNLASGVPARFSGSGSGTSYSLTISSMEAEDAASYFCYQWSTHPYTFGGGTKLEIKR
notes: Chimeric: murine variable regions, hIgG1 constant region with S239D/I332E; also called α-SIRPA 3 S239D/I332E; exemplary anti-SIRPA antibody (α-SIRPA 3)
EC50 (read off the curve) [2]: ~0.3 nM

B6: α-CD248 2 mIgG2a S239D/1332E (antibody, V domains shown)
VH: QVQLQESGPGLVRPSQTLSLTCTASGYTFTDYVIHWVKQPPGRGLEWIGYINPYDDDTTYNQKFKGRVTMLVDTSSNTAYLRLSSVTAEDTAVYYCARRGNSYDGYFDYSMDYWGSGTPVTVSS
VL: DIQMTQSPSSLSASVGDRVTITCRASQNVGTAVAWLQQTPGKAPKLLIYSASNRYTGVPSRFSGSGSGTDYTFTISSLQPEDIATYYCQQYTNYPMYTFGQGTKVQIKR
notes: mIgG2a with S239D/I332E; also called α-CD248 2 mIgG2a S239D/I332E; exemplary anti-CD248 antibody (α-CD248 2)
EC50 (read off the curve) [4]: ~0.01 µg/mL

B8: α-IGF1R 2 S239D/1332E (antibody, human IgG1, kappa, V domains shown)
VH: EVQLLESGGGLVQPGGSLRLSCAASGFTFSNYPMYWVRQAPGKGLEWVSRISSSGGRTVYADSVKGRFTISRDNSKNTLYLQMNSLRAEDTAVYYCARDRWSRSAAEYGLGGYWGQGTLVTVSS
VL: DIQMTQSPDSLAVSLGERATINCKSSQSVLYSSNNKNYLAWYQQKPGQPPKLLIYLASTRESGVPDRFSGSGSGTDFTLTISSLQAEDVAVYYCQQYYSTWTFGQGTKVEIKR
notes: hIgG1 with S239D/I332E; also called α-IGF1R 2 S239D/I332E; exemplary anti-IGF1R antibody (α-IGF1R 2)
binding result [6]: binds

B10: α-CD248 1 mIgG2a S239D/1332E (antibody, V domains shown)
VH: QVQLQESGPGLVAPSQSLSITCTVSGFSLTGYGVNWVRQPPEKGLEWLGMIWVDGSTDYNSALKSRLNISKDKSKSQVFLKMNSLQTDDTARYYCARGGYGAMDYWGQGTSVTVSS
VL: DIQMNQSPSSLSASLGDTITITCHASQNINVWLTWYQQKPGNIPKLLIYKASNLHTGVPSRFSGSGSGTGFTLTISSLQPEDIATYYCQQGQSYPWTFGGGTKLEIKR
notes: mIgG2a with S239D/I332E; also called α-CD248 1 mIgG2a S239D/I332E; exemplary anti-CD248 antibody (α-CD248 1)
EC50 (read off the curve) [4]: ~0.04 µg/mL

B12: α-FAPa 1 S239D/1332E (antibody, mouse IgG2a, kappa, V domains shown)
VH: QVQLVQSGAEVKKPGASVKVSCKTSRYTFTEYTIHWVRQAPGQRLEWIGGINPNNGIPNYNQKFKGRVTITVDTSASTAYMELSSLRSEDTAVYYCARRRIAYGYDEGHAMDYWGQGTLVTVSS
VL: DIVMTQSPDSLAVSLGERATINCKSSQSLLYSRNQKNYLAWYQQKPGQPPKLLIFWASTRESGVPDRFSGSGFGTDFTLTISSLQAEDVAVYYCQQYFSYPLTFGQGTKVEIKR
notes: also called α-FAPα 1 S239D/I332E
binding result [7]: binds

Second part, the binder after the results:

EC50 (read off the curve) [1]: ~0.02 µg/mL
B1: α-PDL1 1 S239D/1332E (antibody, human IgG1, kappa, V domains shown)
VH: EVQLVQSGAEVKKPGATVKISCKVSGYTFTSYWMYWVRQARGQRLEWIGRIDPNSGSTKYNEKFKNRFTISRDNSKNTLYLQMNSLRAEDTAVYYCARDYRKGLYAMDYWGQGTTVTVSS
VL: AIQLTQSPSSLSASVGDRVTITCKASQDVGTAVAWYLQKPGQSPQLLIYWASTRHTGVPSRFSGSGSGTDFTFTISSLEAEDAATYYCQQYNSYPLTFGQGTKVEIKR
notes: Humanized, hIgG1 isotype, with S239D/I332E; also called α-PDL1 1 S239D/I332E; exemplary anti-PDL1 antibody (α-PDL1 1)

EC50 (read off the curve) [3]: ~0.02 µg/mL
B4: α-ANTXR1 2 mIgG2a S239D/1332E (antibody, V domains shown)
VH: QVQLKESPGALVKPTQTLTLTCTFSGFSLSTSGGGVSWIRQPPGKALEWLAHIYSNDDKSYSTSLKTRLTISKDTSKNQVVLTMTNMDPVDTATYYCARGGYFLDYWGQGTLVTVSS
VL: DIELTQPPSVSVAPGQTARISCSGDNIGGIYVHWYQQKPGQAPVLVIYADSKRPSGIPERFSGSNSGNTATLTISGTQAEDEADYYCQSYDITSLVFGGGTKLTVLG
notes: mIgG2a with S239D/I332E; also called α-ANTXR1 2 mIgG2a S239D/I332E; exemplary anti-ANTXR1 antibody (α-ANTXR1 2)

EC50 (read off the curve) [5]: ~0.03 µg/mL
B7: α-uPAR 1 S239D/1332E (antibody, human IgG1, kappa, V domains shown)
VH: QVQLVESGGGVVQPGRSLRLSCAASGFTFSSYGMHWVRQAPGKGLEWVAVIWYDGSNKYYADSVKGRFTISRDNSKNTLYLQMNSLRAEDTAVYYCARDQHIVVVTAILDYWGQGTLVTVSS
VL: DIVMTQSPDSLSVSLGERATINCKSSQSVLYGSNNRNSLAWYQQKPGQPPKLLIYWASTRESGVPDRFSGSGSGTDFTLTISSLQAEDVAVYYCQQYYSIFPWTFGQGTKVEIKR
notes: hIgG1 with S239D/I332E; also called α-uPAR 1 S239D/I332E; exemplary anti-uPAR antibody (α-uPAR 1)

EC50 (read off the curve) [3]: ~0.01 µg/mL
B9: α-ANTXR1 1 mIgG2a S239D/1332E (antibody, V domains shown)
VH: QVQLVQSGAEVKKPGTSVKVSCKVPGYTFSSYAISWVRQAPGQGLEWMGGIIPIFGTTNYAQKFQGRVTITGEESTSTVYMELSSLRSEDTAVYYCARDTDYMFDYWGQGTLVTVSS
VL: SSELTQDPVVSVALGETVSITCQGDNLRDFYASWYQQKPGQAPLLVMYGKNRRPSGIPDRFSGSTSGNTLSLTITGAQAEDEADYYCSSRDNSKHVVFGGGTKVTVLG
notes: mIgG2a with S239D/I332E; also called α-ANTXR1 1 mIgG2a S239D/I332E; exemplary anti-ANTXR1 antibody (α-ANTXR1 1)

binding result [6]: binds
B11: α-IGF1R 1 S239D/1332E (antibody, human IgG1, kappa, V domains shown)
VH: EVQLLESGGGLVQPGGSLRLSCAASGFTFSIYRMQWVRQAPGKGLEWVSGISPSGGTTWYADSVKGRFTISRDNSKNTLYLQMNSLRAEDTAVYYCARWSGGSGYAFDIWGQGTMVTVSS
VL: DIQMTQSPLSLSASVGDRVTITCQASRDIRNYLNWYQQKPGKAPKLLIYDASSLQTGVPSRFGGSGSGTDFSFTIGSLQPEDIATYYCQQFDSLPHTFGQGTKLEIKR
notes: hIgG1 with S239D/I332E; also called α-IGF1R 1 S239D/I332E; exemplary anti-IGF1R antibody (α-IGF1R 1)
